Results taken from patent US20260193363A1.

What was measured:
[1] = target: EGFR overexpressed on cancer cell lines MDA-MB-468 and A431 (human) (UniProt P00533); assay: flow cytometry, antibodies added at 2 µg/ml, MDA-MB-468 cells
[2] = target: wild-type EGFR on F98EGFR cells (rat glioma F98 transfected with full-length EGFR) (UniProt P00533); assay: flow cytometry, antibodies added at 2 µg/ml, F98-EGFR cells
[3] = target: EGFRvIII on F98npEGFRvIII cells (rat glioma F98 transfected with nonphosphorylated EGFRvIII); assay: flow cytometry, antibodies added at 2 µg/ml, F98-npEGFRvIII cells
[4] = target: wtEGFR at physiological levels on WI-38 cells (human) (UniProt P00533); assay: flow cytometry, antibodies added at 2 µg/ml, WI-38 cells
[5] = target: EGFR overexpressed on cancer cell lines MDA-MB-468 and A431 (human) (UniProt P00533); assay: flow cytometry, antibodies added at 2 µg/ml, A431 cells
[6] = target: EGFRvIII on DKMG-EGFRvIII cells (human glioblastoma line DKMG transduced with EGFRvIII); assay: flow cytometry on DKMG-EGFRvIII cells, antibody at 1 µg/ml
[7] = target: EGFR and EGFRvIII on GBM39 cells (patient derived xenograft glioblastoma line); assay: flow cytometry on GBM39 cells, antibody at 20 µg/ml
[8] = target: wtEGFR at physiological levels on WI-38 cells (human) (UniProt P00533); assay: flow cytometry on WI-38 cells, antibody at 2 µg/ml
[9] = target: wild-type EGFR on F98EGFR cells (rat glioma F98 transfected with full-length EGFR) (UniProt P00533); assay: flow cytometry on F98EGFR cells, antibody at 2 µg/ml
[10] = target: EGFRvIII on DKMG-EGFRvIII cells (human glioblastoma line DKMG transduced with EGFRvIII); assay: flow cytometry on DKMG-EGFRvIII cells, antibody at 0.1 µg/ml
[11] = target: EGFR and EGFRvIII on GBM39 cells (patient derived xenograft glioblastoma line); assay: flow cytometry on GBM39 cells, antibody at 0.2 µg/ml
[12] = target: EGFR and EGFRvIII on GBM39 cells (patient derived xenograft glioblastoma line); assay: flow cytometry on GBM39 cells, antibody at 2 µg/ml
[13] = target: EGFRvIII on DKMG-EGFRvIII cells (human glioblastoma line DKMG transduced with EGFRvIII); assay: flow cytometry on DKMG-EGFRvIII cells, antibody at 10 µg/ml

Row | Substance | Median : PE-A [1] | Median : PE-A [2] | Median : PE-A [3] | Median : PE-A [4] | Median : PE-A [5] | median fluorescent intensity [6] | median fluorescent intensity [7] | GeoMean [8] | GeoMean [9] | median fluorescent intensity [10] | median fluorescent intensity [11] | median fluorescent intensity [12] | median fluorescent intensity [13]
1 | IgG1 Iso Con (antibody) | 34.9 | 32.6 | 26.2 | 48 | 34.3 |  |  |  |  |  |  |  | 
2 | IgG2 Iso Con (antibody) | 34.1 | 33.5 | 26.9 | 47.6 | 31.2 |  |  |  |  |  |  |  | 
3 | monoclonal antibody ma528 | 6860 | 4040 | 4470 | 2720 | 10700 | 14300 | 30300 | 2450 | 3700 | 12900 | 12700 | 29800 | 13500
